These results are taken from patent publication US5145837A, “Treatment of arthritis” (Sandoz Ltd., priority 1988, dated 1992).

Series [1] can be described thus: Tolerability. Conditions: in vivo.
The test system of series [2] is prostaglandin E2 production in mouse calvariae. In words: Inhibitory effect on prostaglandin E2 production stimulated by PTH in organ cultures of mouse calvariae. The format is cell-based. As for the experimental part:
Organ cultures of mouse calvariae are first prepared according to the principles of U. L. Ivey, D. R. Wright, A. H. Tashjian, J. Clin. Invest. 58:1327 (1976) as follows:
Frontal and parietal bones are dissected from neonatal (5 to 6-day-old) mice (strain CD-1), split along the sagittal suture, and cultured in 2 ml of BGJ-medium containing 1 mg/ml bovine serum albumin, penicillin and streptomycin in 35 mm plastic tissue culture wells. […]
The cells are cultured for another 48 hours. During the entire culture period, the multi-well dishes are shaken on a rocker platform (15 oscillations/min) in a humidified atmosphere of 5% CO2 in air at 37° C. The calvaria-conditioned medium is harvested and placed at 4° C.
An aliquot of the medium is then assayed for prostaglandin E2 using a standard radioimmunossay. Prostaglandin E2 levels are reduced.

Regarding `C[C@@H](O)[C@@H]1NC(=O)[C@H](CCCCN)NC(=O)[C@@H](Cc2c[nH]c3ccccc23)NC(=O)[C@H](Cc2ccccc2)NC(=O)[C@@H](NC(=O)[C@H](N)Cc2ccccc2)CSSC[C@@H](C(=O)N[C@H](CO)[C@@H](C)O)NC1=O` [Compound IVa], the tolerated dose in series [1] is on record as at least 1 mg.

B1: PTH: parathyroid hormone used to stimulate prostaglandin E2 production (protein, UniProt P01270 32-115, looked up)
Parathyroid hormone: SVSEIQLMHNLGKHLNSMERVEWLRKKLQDVHNFVALGAPLAPRDAGSQRPRKKEDNVLVESHEKSLGEADKADVNVLTKAKSQ
modifications: Parathyroid hormone
notes: parathyroid hormone used to stimulate prostaglandin E2 production
Regarding B1, the PGE2 synthesis in series [2] (PTH 10^-7 M alone (so in the source)) was 340 pg/mL; in series [2] (PTH 10^-10 M alone) it was 50 pg/mL.
